# US20090258001A1
# What was measured:
# [1] = target: CD3 (CD3/TCR complex) on CD4+ and CD8+ T cells of patients (human) (UniProt P07766); assay: flow cytometry of CD4+ T cells, anti-human IgG; Example 4 Cohort A, end of 0.5 mg infusion
# [2] = target: CD3 (CD3/TCR complex) on CD4+ and CD8+ T cells of patients (human) (UniProt P07766); assay: flow cytometry of CD4+ T cells, anti-human IgG; Example 4 Cohort A, end of 0.1 mg infusion
# [3] = target: CD3 (CD3/TCR complex) on CD4+ and CD8+ T cells of patients (human) (UniProt P07766); assay: flow cytometry of CD4+ T cells, anti-human IgG; Example 4 Cohort C, end of 0.3 mg infusion
# [4] = target: CD3 (CD3/TCR complex) on CD4+ and CD8+ T cells of patients (human) (UniProt P07766); assay: flow cytometry of CD4+ T cells, anti-human IgG; Example 4 Cohort B, 2 hours after 0.75 mg infusion
# [5] = target: CD3 (CD3/TCR complex) on CD4+ and CD8+ T cells of patients (human) (UniProt P07766)
# [6] = target: CD3 (CD3/TCR complex) on CD4+ and CD8+ T cells of patients (human) (UniProt P07766); assay: flow cytometry of CD4+ T cells, free CD3 sites by biotinylated TRX4; Example 4 Cohort A*, 0.15 mg
# [7] = target: CD3 (CD3/TCR complex) on CD4+ and CD8+ T cells of patients (human) (UniProt P07766); assay: flow cytometry of CD4+ T cells, anti-human IgG; Example 4 Cohort A*, end of 0.05 mg infusion
# [8] = target: CD3 (CD3/TCR complex) on CD4+ and CD8+ T cells of patients (human) (UniProt P07766); assay: flow cytometry of CD4+ T cells, free CD3 sites by biotinylated TRX4; Example 4 Cohort C, 0.1 mg
# [9] = target: CD3 (CD3/TCR complex) on CD4+ and CD8+ T cells of patients (human) (UniProt P07766); assay: flow cytometry of patients' CD4+ T cells, anti-human IgG; Example 3 Cohort 1 (0.1 mg x3), end of second infusion
# [10] = target: CD3 (CD3/TCR complex) on CD4+ and CD8+ T cells of patients (human) (UniProt P07766); assay: flow cytometry of CD4+ T cells, anti-human IgG; Example 4 Cohort B, end of 0.3 mg infusion
# [11] = target: CD3 (CD3/TCR complex) on CD4+ and CD8+ T cells of patients (human) (UniProt P07766); assay: flow cytometry of CD4+ T cells, anti-human IgG; Example 3 Cohort 3, end of 0.5 mg infusion
# [12] = target: CD3 (CD3/TCR complex) on CD4+ and CD8+ T cells of patients (human) (UniProt P07766); assay: flow cytometry of CD4+ T cells, free CD3 sites by biotinylated TRX4; Example 3 Cohort 3, 0.1 mg
# [13] = target: CD3 (CD3/TCR complex) on CD4+ and CD8+ T cells of patients (human) (UniProt P07766); assay: flow cytometry of CD4+ T cells, anti-human IgG; Example 4 Cohort B, about 24 hours after 0.75 mg infusion
# [14] = target: CD3 (CD3/TCR complex) on CD4+ and CD8+ T cells of patients (human) (UniProt P07766); assay: flow cytometry of CD4+ T cells, anti-human IgG; Example 4 Cohort A, end of 0.3 mg infusion
# [15] = target: CD3 (CD3/TCR complex) on CD4+ and CD8+ T cells of patients (human) (UniProt P07766); assay: flow cytometry of CD4+ T cells, anti-human IgG; Example 3 Cohort 3, end of 0.1 mg infusion
# [16] = target: CD3 (CD3/TCR complex) on CD4+ and CD8+ T cells of patients (human) (UniProt P07766); assay: flow cytometry of CD4+ T cells, free CD3 sites by biotinylated TRX4; Example 3 Cohort 1, end of first 0.1 mg infusion
# [17] = target: CD3 (CD3/TCR complex) on CD4+ and CD8+ T cells of patients (human) (UniProt P07766); assay: flow cytometry of CD4+ T cells, free CD3 sites by biotinylated TRX4; Example 3 Cohort 2, 2 hours after end of infusion
# [18] = target: CD3 (CD3/TCR complex) on CD4+ and CD8+ T cells of patients (human) (UniProt P07766); assay: flow cytometry of CD4+ T cells, free CD3 sites by biotinylated TRX4; Example 3 Cohort 2, third 0.5 mg dose
# [19] = target: CD3 (CD3/TCR complex) on CD4+ and CD8+ T cells of patients (human) (UniProt P07766); assay: flow cytometry, free sites by biotinylated TRX4; Example 4, 4-dose cohorts, 24 hours after infusion
# [20] = target: CD3 (CD3/TCR complex) on CD4+ and CD8+ T cells of patients (human) (UniProt P07766); assay: flow cytometry of CD4+ T cells, free CD3 sites by biotinylated TRX4; Example 4 Cohort B, 0.75 mg
# [21] = target: CD3 (CD3/TCR complex) on CD4+ and CD8+ T cells of patients (human) (UniProt P07766); assay: flow cytometry of CD4+ T cells, free CD3 sites by biotinylated TRX4; Example 4 Cohort A*, 0.05 mg
# [22] = target: CD3 (CD3/TCR complex) on CD4+ and CD8+ T cells of patients (human) (UniProt P07766); assay: flow cytometry of CD4+ T cells, anti-human IgG; Example 4 Cohort B, end of 0.75 mg infusion
# [23] = target: CD3 (CD3/TCR complex) on CD4+ and CD8+ T cells of patients (human) (UniProt P07766); assay: flow cytometry of CD4+ T cells, anti-human IgG; Example 4 Cohort C, about 24 hours after 1.0 mg infusion
# [24] = target: CD3 (CD3/TCR complex) on CD4+ and CD8+ T cells of patients (human) (UniProt P07766); assay: flow cytometry of CD4+ T cells, anti-human IgG; Example 4 Cohort A, end of 0.2 mg infusion
# [25] = target: CD3 (CD3/TCR complex) on CD4+ and CD8+ T cells of patients (human) (UniProt P07766); assay: flow cytometry of CD4+ T cells, free CD3 sites by biotinylated TRX4; Example 3 Cohort 2, first 0.5 mg dose
# UniProt P07766, sequence (P07766 23-207, chain 1 of 3): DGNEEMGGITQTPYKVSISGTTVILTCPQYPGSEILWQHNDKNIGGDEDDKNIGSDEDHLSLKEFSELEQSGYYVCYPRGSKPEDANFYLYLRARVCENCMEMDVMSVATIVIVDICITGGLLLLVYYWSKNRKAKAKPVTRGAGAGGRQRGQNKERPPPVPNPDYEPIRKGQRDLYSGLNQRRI
# UniProt P07766, sequence (chain, as listed by the source, chain 2 of 3): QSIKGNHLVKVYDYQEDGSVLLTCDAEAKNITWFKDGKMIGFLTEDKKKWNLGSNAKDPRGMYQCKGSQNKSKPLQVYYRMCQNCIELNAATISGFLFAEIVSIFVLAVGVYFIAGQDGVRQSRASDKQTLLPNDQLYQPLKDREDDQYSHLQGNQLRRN
# UniProt P07766, sequence (chain, as listed by the source, chain 3 of 3): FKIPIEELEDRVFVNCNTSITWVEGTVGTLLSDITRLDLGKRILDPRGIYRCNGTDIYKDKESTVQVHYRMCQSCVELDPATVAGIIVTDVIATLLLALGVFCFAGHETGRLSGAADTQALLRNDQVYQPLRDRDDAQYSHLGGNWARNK
substance,measurement,setting,value
TRX4 antibody,cell-bound TRX4 (MESF of anti-human IgG),[1],450000 MESF units
same,cell-bound TRX4 (MESF of anti-human IgG),[2],200000 MESF units
same,cell-bound TRX4 (MESF of anti-human IgG),[3],600000 MESF units
same,cell-bound TRX4 (MESF of anti-human IgG),[4],550000 MESF units
same,"CD3/TCR modulation (decrease in MESF of TCR αβ on T cells, stained with non-competing antibody BMA031)",[5],> 80%
same,percent saturation of CD3,[6],80%
same,cell-bound TRX4 (MESF of anti-human IgG),[7],300000 MESF units
same,percent saturation of CD3,[8],50%
same,cell-bound TRX4 (MESF of anti-human IgG),[9],300000 MESF units
same,cell-bound TRX4 (MESF of anti-human IgG),[10],420000 MESF units
same,cell-bound TRX4 (MESF of anti-human IgG),[11],800000 MESF units
same,percent saturation of CD3,[12],45%
same,cell-bound TRX4 (MESF of anti-human IgG),[13],200000 MESF units
same,cell-bound TRX4 (MESF of anti-human IgG),[14],600000 MESF units
same,cell-bound TRX4 (MESF of anti-human IgG),[15],100000 MESF units
same,percent saturation of CD3,[16],37%
same,percent saturation of CD3,[17],55%
same,percent saturation of CD3,[18],95%
same,percent saturation of CD3,[19],40%
same,percent saturation of CD3,[20],95%
same,percent saturation of CD3,[21],50%
same,cell-bound TRX4 (MESF of anti-human IgG),[22],480000 MESF units
same,cell-bound TRX4 (MESF of anti-human IgG),[23],200000 MESF units
same,cell-bound TRX4 (MESF of anti-human IgG),[24],375000 MESF units
same,percent saturation of CD3,[25],90%
